A protein production outcome set (Wang et al. 2014)

Assay: label from the status in PepcDB records

Sequence	protein production
TYWDVDFPRLDQRDSTLTEADHIANVRAALLEAVEMRMVADVPVGCYLSGGIDSCSILGLASAVSQGPVKAFTIGFDDARYDETPIAAEMAEATGAEQDVMRLSGRELYGHMEQTLWHTERTIYNTLAVAKYLMSRHVNSVDYKVVMTGEGSDELFGGYPAFRRDMFLHGLEDLPQSDRQDWESLLQTNNSLVQGAMLAADQVDDPDLDAVVGFTPSCLQPWLACAPLVPDLLADEHRQALVEYSPGKAIAEQLNPQQLDGRHALDKAQYVWIKTMLEGQILTWGGDRVDMANSMEARPAFLDHHLAAAAVQVPPELRIKGKTEKYVLREAMAGLLPEVLYKREKFAFMAPPAHTEPEKWAQMKQLADDYLSDEAIDAAGLLSKEGVRALFARHDDPATTDAERVQMDAVINHLLG	failed
MSFKGEITHLVPNELYAFKVVEGPFHYTGTYRFKPHPEGTWIEWVFEAEPGSFFGVLPPALLKKMVLAQFKKDVDNLQALAQKGEAYESVGNENKPTLETNKPPHKTQQMMERYARWILSHRRIVLEHHHHHH	failed
VWWQLHYGPHPDERELDLEGWTTRVLDATRDAVAIRQRAAVDVGVLLSGGVDSSLLVGLLREVGVDDLSTFSIGFEDAGGERGDEFQYSDLIAKHYGTRHHQLRIAEHEIIDQLPAAFRAMSEPMVSHDCIAFYLLSREVAKHCKGVQSGQGADELFAGYHWYPQVDGADDAYAAYREAFFDRSHAEYRDTVQAPWLLETDAAGDFVREHFARPGAPAAVDKALRLDSTVMLVDDPVKRVDNMTMAWGLEARTPFLDYRLVELSARIPARFKLPDGGKQVLKQAARRVIPHEVIDRKKGYFPVPGLKHLEGATLGWVRELLTDPSQDRGLFNPTMLDRLLSNPHGQLTPLRGSKLWQLAALNLWLS	failed
MEGERMNAFPSTMMDEELNLWDFLERAAALFGRKEVVSRLHTGEVHRTTYAEVYQRARRLMGGLRALGVGVGDRVATLGFNHFRHLEAYFAVPGMGAVLHTANPRLSPKEIAYILNHAEDKVLLFDPNLLPLVEAIRGELKTVQHFVVMDEKAPEGYLAYEEALGEEADPVRVPERAACGMAYTTGTTGLPKGVVYSHRALVLHSLAASLVDGTALSEKDVVLPVVPMFHVNAWCLPYAATLVGAKQVLPGPRLDPASLVELFDGEGVTFTAGVPTVWLALADYLESTGHRLKTLRRLVVGGSAAPRSLIARFERMGVEVRQGYGLTETSPVVVQNFVKSHLESLSEEEKLTLKAKTGLPIPLVRLRVADEEGRPVPKDGKALGEVQLKGPWITGGYYGNEEATRSALTPDGFFRTGDIAVWDEEGYVEIKDRLKDLIKSGGEWISSVDLENALMGHPKVKEAAVVAIPHPKWQERPLAVVVPRGEKPTPEELNEHLLKAGFAKWQLPDAYVFAEEIPRTSAGKFLKRALREQYKNYYGGA	not failed
MLPPYNYMDNGTLKGISIDLLEAITEKMGKKVTREEIHLVSWTEGYQAALTRNNTVLFVTARTPEREQSFKWVGPIYSDKYVLFAKRDPGVTIDGPEDLKEYRIGVISDDVAAQQLLNIGLEHHHHHH	not failed
MPIHIGSSIPLMVEKMLTEMVKPSKHIPQQTLNLSTLDNDPYNEVIYKACYVFKAKNVADDDNRPEALLREALSDLLGYYYPLSGSLKRQESDRKLQLSCGGDGGGVPFTVATANVELSSLKNLENIDSDTALNFLPVLHVDIDGYRPFALQVTKFECGGFILGMAMSHAMCDGYGEGHIMCALTDLAGGKKKPMVTPIWERERLVGKPEDDQPPFVPGDDTAASPYLPTDDWVTEKITIRADSIRRLKEATLKEYDFSNETITTFEVIGAYLWKSRVKALNLDRDGVTVLGLSVGIRNVVDPPLPDGYYGNAYIDMYVPLTAREVEEFTISDIVKLIKEAKRNAHDKDYLQEELANTEKIIKMNLTIKGKKDGLFCLTDWRNIGIFGSMDFGWDEPVNIVPVVPSETARTVNMFMRPSRLESDMVGGVQIVVTLPRIAMVKFKEEMEALE	failed
MTTYLIIGANRVGQLVARQLATESATVRLLHDGKETLPSDLATQVTELTGDLTQEATYTAALQDQPIIFSALTGMDVDLAFEALFDAQYHQRLTFQRFVMLSTAGVDQEVTGDLAYPGITDVAEYLKQQRYAAKLVDEAEFPYTILRPVTLADSPRRDPQIIKEGAAVPAGTVSRETVAQVAVSLLQAGGADYQSLAICLEHHHHHH	failed
MGHHHHHHSHMVLSQNTKRESGRKVQSGNINAAKTIADIIRTCLGPKSMMKMLLDPMGGIVMTNDGNAILREIQVQHPAAKSMIEISRTQDEEVGDGTTSVIILAGEMLSVAEHFLEQQMHPTVVISAYRKALDDMISTLKKISIPVDISDSDMMLNIINSSITTKAISRWSSLACNIALDAVKMVQFEENGRKEIDIKKYARVEKIPGGIIEDSCVLRGVMINKDVTHPRMRRYIKNPRIVLLDSSLEYKKGESQTDIEITREEDFTRILQMEEEYIQQLCEDIIQLKPDVVITEKGISDLAQHYLMRANITAIRRVRKTDNNRIARACGARIVSRPEELREDDVGTGAGLLEIKKIGDEYFTFITDCKDPKACTILLRGASKEILSEVERNLQDAMQVCRNVLLDPQLVPGGGASEMAVAHALTEKSKAMTGVEQWPYRAVAQALEVIPRTLIQNCGASTIRLLTSLRAKHTQENCETWGVNGETGTLVDMKELGIWEPLAVKLQTYKTAVETAVLLLRIDDIVSGHKKKGDDQSRQGGAPDAGQE	failed
MNALVLYFDGKCPFCAAEMRRLSEWDTQHQLAFVDIAQEGFDCSSLNVDLAALNRELHGRTSDGRLLVGIDCMIAAYTLAGHGWLVLPLRVPGLRRVLANLYRAFAGNRYTLSRWLGYGTATACDGDSCGTGNPFLSGKELTDAAEDRPARRDSRQLAVRWMYAAAIAHLLVGAAMPWAADATLFGTYHRIVEQSFWSGAAPAQARAQQVWWIALFGATLQCSAIWMLALVHLGNRTRHRMAWGWLLVGLLVWAPQDLLISLQAHVWPHVLVDAVALLTMIPPLLYLWRKDAA	failed
MLNLSSIMKPNEIMKNWIDPEAKAEAERYDNPIPSRTLILTTLEQLDLPQSHAELVDHFDIHDQKSIDALSHRLIAMVRDGQLSKDGFKFQPIGEQPTFDATVYINNKGFGSAHIDGQNDLLLPERELRLVFNGDRVKVRQTSVDRKGKAWGFITEVTQHRVKQLIGKLAVHEGEYFLQPSAPNAHQPIPLEKELIEHAQAKVGENLRVAIDDYPTREEFSTGHIIQSMSDKADTEIIIPQTILEFGLPYEFPEEVVKDAESFKEPSKKDIEGRIDLRDLPLVTIDGEDARDFDDAVYAEKRSGGGYRVVVAIADVSHYVRLGKPLDDEAQERGTSVYFPHFVLPMLPEALSNGLCSLNPHVDRLCMVCDLKLSRAGRVMSYEFYPSVMHSKARLTYTQVGNYFDGQTDAIPDDKNIQKSLNTLFQLYQTLKGLRAKRHAMEFETIETYMTFDELGGIKEILPRTRNEAHKLIEECMLLANVAAAEFSLQHDIPMLYRVHEAPEFSRIQKVKDFVKLLGLPFPDQPTQADYQRVIEATKDRIDAPSIHAVLLRSMMQAYYGAKNAGHYGLAYEAYTHFTSPIRRYPDLLLHRAIKAHLQQKPYPLSGAALDDAGEQFSRTERRADEASRSVTTWLKCHYMKQHLGEEFIGIISAVTEFGLFVTLKDLYVDGMIHVSQLGDDFFLYDQASQSLVGQNRGQIFGLGDEVKIKVAAVNLDERKIDFELMQQITHAGRVIRQKAPRSSKTQATEQVFNVPSETTSTQERDTRKKEKSKSKPSSYAKKSAKKSSPASVSKPVKEKKKVKVKKKKSNAKPKSE	failed
MPGAVDFKERISRQRPHDRETYGHAGNTDLQDIVYQLESDRGRIVNSAAVRRLQQKTQVFPLERNAAVRSRLTHSLEVQQTGRFIVRTLFRQLGPRAAEVGLDGLEGALESLVEMACLMHDVGNPPFGHFGEYAINDWFERNLDALFERRIPPGQGDGLLQQRMLTDLKHFEGNAQAIRLVVKLLRLNLTYTQTAGLLKYVRPAYEPKPDKAAANHYLNKKPGFYLSEEAFVDELRRVLGMRPGTRHPVAYIMEAADDISYCLADIEDSVEKGILDIRQLADLLVKKFAVHHSPDAPIPGDADNMSFQRMVDYSLEKAEREPINKVSEFFIRLRVKMIHPLVQHAAQQFIDNFEAVHAGTLGRALMEDGSLPHAIVQTFKDVAMEWVFCHPEVETLELQGYRIIQGLLDFYAPLLRLPAEEFQALAEGRQAAAPHPQLLVRRLPSQQIKAYLEAMKGVAEDPLQRQWEFYHRCRMLQDFVSGMTDQHAQDEYRALSA	failed
MFTFLMTVRTSRRVAFHSGKLPVVIGIVSFFAPLFSLSFLNLFTDNIDPHYMSLDKALAERTVIVITQSQILLPSTTYILLELKIINSELGRLALSASAINDMLGIFAMIVATTQATYIHVSHAIAYRDLVAVIIFFLIVFFVFKPMVQWIIDRTPEDKPVEDIYIHAVILTAFASAAYFVFFNMKYVLGPLIIGIIIPEGPPLGSALEAKFERLTMNVFLPISITFSAMRCDGLRILSQFTDIYFNIFLTLLILVIKLVACLTLCLYYKLPRSESLAVSLILSYKSFVEFVLYEAVLEEKFISQATYAFLILYSLLSAGIVPMVVRSMYDPKRKYVNYQKRDILHLEANSGLRILTCLHKPENVSETIAFLQLFSSPIHDFPIAVTVLHLVKLVGQINPIIVSHDKKLKRLHKNSYIHTANLAFRQFMQESLESVTVTTFTAFSHENLMHEDICTLALDRTTSMIVVPSGRKWTVDGMFESDDLAARQLNQSLLDRAPCSIGILVDRGQFSRKSYVTSKNRYNIDVGVLFIGGKDDREALSLVKRMKYNPRVRVTVIRLIFDHEIESEWDYILDNEGLKDLKSTESNEDILYTERIVTSVVEVVKAVQLLAEEYDLMVVGRDHDMTSQDLSGLTEWVELPELGVIGDLLAARDLNSKVSVLVVQQQQQQT	failed
YAVQICKGMDYLGSRQYVHRDLAARNVLVESEHQVKIGDFGLTKAIETDKEYYTVKDDRDSPVFWYAPECLMQSKFYIASDVWSFGVTLHELLTYCDSDSSPMALFLKMIGPTHGQMTVTRLVNTLKEGKRLPCPPNCPDEVYQLMRKCWEFQPSNRTSFQNLIEGFEALLK	failed
FTDITERYQHAEALSESERWIRLITDHVPALIAYLNADLVYEFTNKVYEEWYCWPRGVMLGQSLREVHSEQHYQRLESYVERALAGESVTFEFAETNINNQERYMLRSYVPNRLANGEVVGIFVLIRDITERRRTAEALHQAYQNLELRV	failed
MSASAPQAHGPAATGTVTTDVPARLDRLPWSRWHWMIVIGLGTVWILDGLEVTTVGNIAGRLSEDGSGLSITSAQVTGVAAALYVAGACAGALFFGWLTDRFGRKKLFMVTLVVYLSATALTALSFNSWWFFTFRFLTGFGIGGEYAAINSAIDELIPAKYRGRVDLIINGSYWLGAIGGALLSIVMLDTSIFPKDLGWRLTFALGVVLGLVILLVRRHVPESPRWQFIHGRGEDAEALVSSVEREIEQEKGEPLPRAESEITIEQRKSIGFGLIAKTVFGRYPKRAVLGLALFIGQAFLYNAITFGFGAILTTFYDVPTGGTGYYFAVIAAGNFIGPLLLGKLFDTVGRRIMIASTYLLSGLLLFGTAWLFDRGSLSAMTLTACWCAVLFFASAGASSAYLTVSEVFPMETRAMAIAFFYALGTAAGGISGPLVFADLTESGVVGDTVLAFQIGAGLMCAAGLVAAFLAVNAERRSLEDIAEPLSVAQTTAPAPASASGT	failed
TLGKETKTTVHKFGLEPPSELIQKQLRANLDDDIWEVIRSRKIDGEHVILDKDYFFRKHVPHLTKEICENSIYEYIEGELGLSISYAQKEIVAEPCTDEDRELLDLRGYDHMVVVRNYVFLEDTSLFQYTESRHRLDKFRFVDFARRGK	not failed
